Reference: paper PMC10823522, “Antibodies Raised Against an Aβ Oligomer Mimic Recognize Pathological Features in Alzheimer’s Disease and Associated Amyloid-Disease Brain Tissue” (ACS Central Science, 2023)

What was measured:
[1] = biological target: 2AT-L, covalently stabilized triangular trimer composed of three Aβ17-36 β-hairpin peptides (2AM-LCC); test: SDS-PAGE; silver stained; Tris buffer at pH 6.8 with 2% (w/v) SDS; 5.0, 2.5, 1.25 and 0.6 μg of 2AT-L or 2AM-L in each lane
[2] = biological target: 2AT-L, covalently stabilized triangular trimer composed of three Aβ17-36 β-hairpin peptides (2AM-LCC); test: crystal structure; X-ray crystallographic structure of 2AT-L at 1.8 Å; assembly seen in the crystal lattice
SDS-PAGE = assay type: physicochemical; settings: Aβ42, 16.5% Tris-Tricine gel, 0.25–0.016 mM, 10 μL per lane
[3] = ThT aggregation assay of Aβ42; assay type: physicochemical; settings: 6.25 μM Aβ42 in PBS pH 7.4, 10 μM ThT, 25 °C, quiescent; ex 440 nm, em 485 nm
Description: Figure 3 In vitro characterization of pAb2AT-L with 2AT-L and 2AM-L and Aβ42. (A) Indirect ELISA of pAb2AT-L against 2AT-L, 2AM-L, and BSA. (B) Western blot analysis of pAb2AT-L against a concentration gradient of 2AT-L. SDS-PAGE was performed on a 16.5% Tris-Tricine gel (Bio-Rad); 10 μL was loaded in each lane. (C) Indirect ELISA of pAb2AT-L and 6E10 against Aβ42. (D and E) Western blot analysis of pAb2AT-L (D) and 6E10 (E) against a concentration gradient of Aβ42. SDS-PAGE was performed on a 16.5% Tris-Tricine gel (Bio-Rad); 10 μL was loaded in each lane. (F and G) Dot blot analysis of pAb2AT-L (F) and 4G8 (G) against 6.25 μM Aβ42 aggregated over time in PBS. A 1 μL portion of the Aβ42 solution was spotted in triplicate on 0.2 μm nitrocellulose membranes every 30 min for 5 h and then at 96 h. (H and I) Average integrated spot density from the dot blots in F and G. Integrated density for each spot was determined using ImageJ. (J and K) Change in integrated spot density from the 0-h time point. (L) ThT aggregation assay of 6.25 μM Aβ42. The ThT assay was performed at 25 °C under quiescent conditions in PBS (10 mM Na2HPO4, 1.8 mM KH2PO4, 137 mM NaCl, 2.7 mM KCl) at pH 7.4 containing 10 μM ThT. ThT fluorescence was monitored at 440 nm excitation and 485 nm emission. […]

cells = settings: cited from earlier work
Source text: Like oligomers of full-length Aβ, 2AT-L is toxic toward cells in culture, eliciting toxicity by interacting with the cells and promoting membrane disruption and release of LDH, depleting ATP, and activating caspase-3/7-mediated apoptosis.

Aβ and its aggregates = settings: cited from earlier work
Source text: The 6E10 and 4G8 monoclonal antibodies—among the most extensively used Aβ antibodies in Alzheimer’s disease research—were generated by immunizing mice with a peptide fragment that encompassed the N-terminal half of Aβ (Aβ1–24).[58],[59]

[4] = system: Aβ protofibrils in brain and cerebrospinal fluid; settings: Alzheimer's disease transgenic mice; cited from earlier work
Source text: Antibodies that target monomeric, oligomeric, and fibrillar forms of the β-amyloid peptide (Aβ) are valuable tools for Alzheimer’s disease research and have emerged as Alzheimer’s disease therapies.[4],[5] […] These antibodies act by binding Aβ aggregates and facilitating their clearance from the brain, mitigating both the direct and downstream damaging eff ...

2AT-L, covalently stabilized triangular trimer composed of three Aβ17-36 β-hairpin peptides (2AM-LCC) (complex)
stoichiometry N (copies of 2AT-L) [1]: 4 | stoichiometry N (copies of 2AT-L) [2]: 4

Aβ42: 42-amino-acid alloform of Aβ
predominant oligomers on SDS-PAGE (SDS-PAGE): migrate at a molecular weight consistent with a trimer and tetramer | time at which ThT-reactive aggregates begin to form [3]: 1 h | time at which ThT-reactive aggregates plateau [3]: 1.75 h

full-length Aβ: full-length β-amyloid peptide
ATP depletion by full-length Aβ (cells): ATP depletion | LDH release by full-length Aβ (cells): promotes LDH release | caspase-3/7 activation by full-length Aβ (cells): caspase-3/7 activation

B1: Donanemab: anti-Aβ antibody drug (antibody, chains of the INN, looked up, V domains shown)
VH: QVQLVQSGAEVKKPGSSVKVSCKASGYDFTRYYINWVRQAPGQGLEWMGWINPGSGNTKYNEKFKGRVTITADESTSTAYMELSSLRSEDTAVYYCAREGITVYWGQGTTVTVSS
VL: DIVMTQTPLSLSVTPGQPASISCKSSQSLLYSRGKTYLNWLLQKPGQSPQLLIYAVSKLDSGVPDRFSGSGSGTDFTLKISRVEAEDVGVYYCVQGTHYPFTFGQGTKLEIK
target of Donanemab (Aβ and its aggregates): targets N-terminally pyroglutamated Aβ that is aggregated in Aβ plaques

B2: Lecanemab: anti-Aβ antibody drug (antibody, chains of the INN, looked up, V domains shown)
VH: EVQLVESGGGLVQPGGSLRLSCSASGFTFSSFGMHWVRQAPGKGLEWVAYISSGSSTIYYGDTVKGRFTISRDNAKNSLFLQMSSLRAEDTAVYYCAREGGYYYGRSYYTMDYWGQGTTVTVSS
VL: DVVMTQSPLSLPVTPGAPASISCRSSQSIVHSNGNTYLEWYLQKPGQSPKLLIYKVSNRFSGVPDRFSGSGSGTDFTLRISRVEAEDVGIYYCFQGSHVPPTFGPGTKLEIK
target selectivity of Lecanemab (Aβ and its aggregates): selectively targets Aβ protofibrils | Aβ protofibrils in brain and cerebrospinal fluid [4]: reduced Aβ protofibrils in the brain and cerebrospinal fluid
